Test results published in patent US20250163136A1 (FRAUNHOFER GESELLSCHAFT ZUR F RDERUNG DER ANGEWANDTEN …, published 2025).
Blank lines part the entries; values can stand above or below the binder they belong to. Numbered stars: 1 amine (or outer) side, 2 acyl side, 3 side chain; on linkers, the order of the positions; unused ones are H or OH. Square brackets hold non-standard residues; d marks the D form. * marks the point of attachment. Biotin = O=C1N[C@H]2[C@H](CS[C@H]2CCCCC(=O)*)N1; βAsp = O=C(O)[C@H](CC(=O)[*:2])N[*:1]; PEG = not defined here

Tests used:
[1] = target: T1, aggregated Aβ(1-42) with confirmed isoAsp-content (isoD7-Aβ(1-42)) (X at position 7 is L-isoAsp); assay: dot blot
T1 construct: Aggregated amyloid fibrils; dot blot lanes 8 and 9 (with m11); also called isoD7-AB; aggregated Aβ1-42 (verified isoD content)
Experimental: (§1) 0.5 μg of recombinantly expressed TTR proteins (TTRwt (SEQ ID NO: 1), TTR-V30M (SEQ ID NO: 7), or TTR-V122I (SEQ ID NO: 8)), ATTR fibrils or 0.5 μg of either freshly dissolved Aβ(1-42) (SEQ ID NO: 9) or aggregated Aβ(1-42) with confirmed isoAsp-content (SEQ ID NO: 10) were spotted on nitrocellulose membranes. Membranes were blocked for 1 hour in blocking solution (5% (w/v) milk powder in TBS+0.05% (v/v) Tween-20 (Carl Roth)). […] Alkaline phosphatase-conjugated, anti-mouse or rabbit IgG antibodies (abeam) in combination with chromogenic substrates BCIP and NBT (Carl Roth) were subsequently used for detection.

[2] = target: T2, freshly dissolved Aβ(1-42); assay: dot blot
T2 construct: Dot blot lanes 8 and 9 (with m12); also called monomeric peptides of Aβ
Experimental: as §1

[3] = target: T3, isoD38-TTR(35-43)-PEG-Biotin (human, reading uncertain); assay: SPR, BIAcore 3000, 25 °C; antibody captured on goat anti-mouse IgG (CM5 chip), peptide injected (five consecutive injections, 2 nM to 512 nM)
T3 construct: KAAXDTWEP; also called isoaspartate-containing TTR(35-43)-peptide
T3 peptide: {Biotin-PEG}-KAA[βAsp]DTWEP-NH2
Experimental: (§2) Antibody binding kinetics to TTR(35-43)-PEG-Biotin (SEQ ID NO: 5) and isoD38-TTR(35-43)-PEG-Biotin (SEQ ID NO: 6) were analyzed by using SPR on a BIAcore 3000 device at 25° C. For this purpose, the surface of a CM5 sensor chip (Cytiva) was modified with a goat anti-mouse antibody using NHS/EDC chemistry. To immobilize the anti-mouse IgG, the carboxymethylated dextran surface of the sensor chip was activated by mixing 0.1 M N-hydroxysuccinimide (NHS) with 0.4 M N-ethyl-N′-(dimethylaminopropyl) carbodiimide hydrochloride (EDC) 1:1. EDC/NHS was applied to the sensor chip with a flow rate of 20 μL/min for 7 minutes. Goat anti-mouse IgG was diluted to 50 μg/mL in 10 mM sodium acetate, pH 5.5, and injected for 2×4 minutes contact time with a flow rate of 30 μL/min. Deactivation was done by applying 1 M ethanolamine pH 8.5 with a flow rate of 10 μL/min for 2×7 minutes contact time. About 20000 RU of the goat anti-mouse antibody were immobilized onto the chip surface.

TTR(35-43)-PEG-Biotin [4] = target: T4, TTR(35-43)-PEG-Biotin (human, reading uncertain); assay: SPR, BIAcore 3000, 25 °C; antibody captured on goat anti-mouse IgG (CM5 chip), peptide injected (five consecutive injections, 512 nM to 131 µM)
T4 construct: also called non-modified peptide TTR(35-43)
T4 peptide: {Biotin-PEG}-KAADDTWEP-NH2
Experimental: as §2

[5] = target: T3, isoD38-TTR(35-43)-PEG-Biotin; assay: SPR, BIAcore 3000, 25 °C; antibody captured on goat anti-mouse IgG (CM5 chip), peptide injected (multicycle kinetics, 10 nM to 100 µM)
Experimental: as §2

TTR(35-43)-PEG-Biotin [6] = target: T4, TTR(35-43)-PEG-Biotin; assay: SPR, BIAcore 3000, 25 °C; antibody captured on goat anti-mouse IgG (CM5 chip), peptide injected (multicycle kinetics, 1 µM to 200 µM)
Experimental: as §2

T2 sequence (peptide, as listed by the source): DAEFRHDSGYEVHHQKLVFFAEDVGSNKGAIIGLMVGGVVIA
T1 sequence (peptide, as listed by the source): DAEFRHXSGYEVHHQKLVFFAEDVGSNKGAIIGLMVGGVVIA

Kd [3]: 1.55 nM
Kd (TTR(35-43)-PEG-Biotin [4]): 719 nM
B1: monoclonal antibody 2F2 (antibody, V domains shown)
VH: DVQLVESGGGLVQPGGSRKLSCAASGFTFSSFAMHWVRQAPDKGLEWVAFISSGSNTIYYADTVKGRFTVSRDNPKNTLFLQMTSLRSEDTAMYYCASNSYYGMDYWGQGTSVTVSS
VL: NIMMTQSPSSLAVSAGEKVTMSCKSSQSVLYSSNQKNYLAWYQQKPGQSPKLLIYWASTRESGVPDRFTGSGSGTDFTLTISSVQAEDLAVYYCHQYLSSRTFGAGTKLELKR
notes: also called isoD38-TTR-specific antibody 2F2; TTR mAb 2F2
binding result [1]: no binding (tested: 0.5 µg peptide spotted; antibody 1 µg/mL)
binding result [2]: no binding (tested: 0.5 µg peptide spotted; antibody 1 µg/mL)

Kd [5]: 124 nM
Kd (TTR(35-43)-PEG-Biotin [6]): 29000 nM
B2: monoclonal antibody 4D4 (antibody, V domains shown)
VH: QVQLQQSGAELMKPGASVKISCKAPGNTFSSRWIEWVKERPGHGLEWIGEIFPGNGNTNYNEKFKGKATFTADTSSNTAYIQFSSLASEDSGVYYCVSEDYWGQGTLVTVSS
VL: DIQMTQSPASLSASVGETVTITCRTSGNIRNSLAWYRQKQGKSPQLLVFNGKTLADGVPSRFSGSGSGTQYSLKINSLQPEDLGTYYCQHFWNIPFTFGSGTKLEIKR
notes: also called isoD38-TTR-specific antibody 4D4; TTR mAb 4D4
binding result [1]: no binding (tested: 0.5 µg peptide spotted; antibody 1 µg/mL)
binding result [2]: no binding (tested: 0.5 µg peptide spotted; antibody 1 µg/mL)
